# B1: H02-Cy5 (XNA)
# RNA: GGUUACCAGCCUUCACUGCGGACGGACAGAGAGUGCAACCUGCCGUGCCGCACCACGGUCGGUCACAC
# modifications: 2'-fluoro pyrimidines (2'F-RNA)
# Target: integrin α5β1 (in human FFPE glioblastoma sections) (human, UniProt P08648;P05556 42-1049;21-798)
# Assay: aptahistofluorescence; FFPE GBM, 1 or 2 µM aptamer; frozen sections too low to detect; Flow cytometry: 300,000 cells detached with 0.2 M EDTA, 30 min with Cy5-aptamer; tissue: selection buffer, 2% BSA +/- 100 µg/mL yeast tRNA block, 1 h on ice; aptamers denatured at 95 °C 3 min then ice 5 min; buffer composition, salt and pH not given in material
# Conditions: protein: native; copies: 1;1; label: 3'-Cy5
# integrin α5β1 (in human FFPE glioblastoma sections), sequence (P08648 42-1049, chain 1 of 2): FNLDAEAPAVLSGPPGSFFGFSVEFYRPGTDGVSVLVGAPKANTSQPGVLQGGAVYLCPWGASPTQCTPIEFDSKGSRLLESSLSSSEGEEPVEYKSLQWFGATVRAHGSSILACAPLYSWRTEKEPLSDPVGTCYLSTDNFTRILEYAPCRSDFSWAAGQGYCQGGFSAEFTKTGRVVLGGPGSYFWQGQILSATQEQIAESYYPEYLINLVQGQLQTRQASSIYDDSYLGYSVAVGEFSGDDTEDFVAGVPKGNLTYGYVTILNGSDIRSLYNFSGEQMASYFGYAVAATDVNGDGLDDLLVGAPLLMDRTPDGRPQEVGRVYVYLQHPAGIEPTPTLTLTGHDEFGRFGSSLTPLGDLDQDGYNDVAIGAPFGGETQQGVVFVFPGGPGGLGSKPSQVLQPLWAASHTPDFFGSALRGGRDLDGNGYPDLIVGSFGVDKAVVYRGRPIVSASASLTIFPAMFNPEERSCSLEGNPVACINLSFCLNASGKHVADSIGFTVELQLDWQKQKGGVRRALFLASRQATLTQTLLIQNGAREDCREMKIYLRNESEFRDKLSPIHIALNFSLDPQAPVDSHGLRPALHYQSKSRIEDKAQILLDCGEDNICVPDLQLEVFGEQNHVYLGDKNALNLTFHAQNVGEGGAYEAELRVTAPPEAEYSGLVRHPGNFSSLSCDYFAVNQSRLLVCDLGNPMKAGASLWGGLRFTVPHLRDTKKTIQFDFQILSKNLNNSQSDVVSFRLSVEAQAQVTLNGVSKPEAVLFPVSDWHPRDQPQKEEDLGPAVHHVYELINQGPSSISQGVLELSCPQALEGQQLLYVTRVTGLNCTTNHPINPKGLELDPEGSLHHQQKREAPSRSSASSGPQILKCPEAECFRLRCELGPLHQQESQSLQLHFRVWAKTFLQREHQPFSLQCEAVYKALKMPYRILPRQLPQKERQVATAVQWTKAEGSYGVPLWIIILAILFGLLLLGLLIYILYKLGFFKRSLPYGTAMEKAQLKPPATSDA
# integrin α5β1 (in human FFPE glioblastoma sections), sequence (P05556 21-798, chain 2 of 2): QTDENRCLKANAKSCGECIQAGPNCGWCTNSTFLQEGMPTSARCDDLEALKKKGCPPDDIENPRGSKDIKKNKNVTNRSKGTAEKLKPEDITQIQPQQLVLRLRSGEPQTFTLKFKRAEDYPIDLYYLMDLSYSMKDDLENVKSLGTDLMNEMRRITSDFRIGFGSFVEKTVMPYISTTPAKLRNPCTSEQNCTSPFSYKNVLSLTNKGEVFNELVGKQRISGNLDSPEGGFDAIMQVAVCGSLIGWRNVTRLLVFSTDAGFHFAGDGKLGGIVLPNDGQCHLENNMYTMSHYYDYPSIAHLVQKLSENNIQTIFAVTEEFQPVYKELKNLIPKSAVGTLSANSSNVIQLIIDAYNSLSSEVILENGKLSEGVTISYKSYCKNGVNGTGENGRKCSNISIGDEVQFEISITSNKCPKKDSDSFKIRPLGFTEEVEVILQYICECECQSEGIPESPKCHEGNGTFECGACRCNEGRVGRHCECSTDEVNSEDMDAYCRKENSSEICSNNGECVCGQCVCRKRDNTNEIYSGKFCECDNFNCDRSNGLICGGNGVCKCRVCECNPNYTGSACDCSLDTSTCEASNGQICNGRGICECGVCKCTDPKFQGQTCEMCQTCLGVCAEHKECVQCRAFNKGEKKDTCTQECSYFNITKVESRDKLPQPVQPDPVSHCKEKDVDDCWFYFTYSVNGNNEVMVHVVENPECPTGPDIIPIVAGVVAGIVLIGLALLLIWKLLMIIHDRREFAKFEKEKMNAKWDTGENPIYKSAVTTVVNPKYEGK
binder,measurement,value
B1,binding result,binds

# Source: PMC9609998, “Bioimaging Nucleic-Acid Aptamers with Different Specificities in Human Glioblastoma Tissues Highlights Tumoral Heterogeneity”
